Laboratory results: US6207419A, “Thrombin inhibitory agents and methods of using same” (The University of North Carolina at Chapel Hill, priority 1999, dated 2001)

What was measured:
α-thrombin = molecular target: T1, α-thrombin (Homo sapiens, UniProt P00734); assay: Effect of hirugen on thrombin inhibition in the absence of glycosaminoglycan; assay type: biochemical
T1 construct: Human α-thrombin, HCII, and ATIII were purified in our laboratory from plasma; from tissue; host or cells: human plasma (purified in the authors' laboratory)
Procedure: Residual thrombin activity was measured with 150 μM GlyProArg-NA and 1 mg/mL pB in the absence of glycosaminoglycan, 2 mg/mL pB in the presence of heparin and 4 mg/mL in the presence of dermatan sulfate. Residual factor Xa activity was measured with 500 μM Spectrozyme FXa and 2mg/mL pB in the presence or absence of glycosaminoglycan. Residual chymotrypsin activity was measured with 150 μM AlaAlaProPhe-NA and residual trypsin activity was measured with 150 μM GlyProArg-NA.
Assays were performed at least in triplicate on two or more recombinant protein preparations.

thrombin = assay: Plasma-based thrombin inhibition assay; assay type: biochemical, human; conditions: for Inhibition Rate k2 × 10^8 (M^-1 min^-1), thrombin in plasma: 10 nM serpin
Procedure: The assay to evaluate rHCII (wt and rHCII-CHis6) in plasma was designed based on previously published methods (Tollefsen, D. M., and Pestka, C. A. (1985) Blood 66(4), 769-774; Griffith, M. J., Carraway, T., White, G. C., and Dombrose, F. A. (1983) Blood 61(1), 111-118). All assays were performed at room temperature in 96-well microtiter plates previously coated with 2 mg/mL BSA. This assay was performed using normal hemostasis reference plasma (REF), human antithrombin III-deficient plasma (DEF), or a 50:50 mixture of these plasmas (REF/DEF). Within the assay, 10 nM rHCII or rHCII-CHis6 was incubated for 15 sec with I nM thrombin and 1 μg/mL heparin or 50 μg/mL dermatan sulfate, in the presence of a 1:100 dilution of plasma. Residual thrombin activity was measured with 300 μM GPA and 2 mg/mL pB. Substrate cleavage was measured by color development at […] on a Vmax Kinetic Microplate Reader. Second order rate constants were measured at least in triplicate on two recombinant protein preparations as described in Example 4.

B1: rHCII-CHis6: Recombinant HCII with six histidine residues added at the carboxyl terminus; SEQ ID NO:5 (protein)
chain: MKHSLNALLIFLIITSAWGGSKGPLDQLEKGGETAQSADPQWEQLNNKNLSMPLLPADFHKENTVTNDWIPEGEEDDDYLDLEKIFSEDDDYIDIVDSLSVSPTDSDVSAGNILQLFHGKSRIQRLNILNAKFAFNLYRVLKDQVNTFDNIFIAPVGISTAMGMISLGLKGETHEQVHSILHFKDFVNASSKYEITTIHNLFRKLTHRLFRRNFGYTLRSVNDLYIQKQFPILLDFRTKVREYYFAEAQIADFSDPAFISKTNNHIMKLTKGLIKDALENIDPATQMMILNCIYFKGSWVNKFPVEMTHNHNFRLNEREVVKVSMMQTKGNFLAANDQELDCDILQLEYVGGISMLIVVPHKMSGMKTLEAQLTPRVVERWQKSMTNRTREVLLPKFKLEKNYNLVESLKLMGIRMLFDKNGNMAGISDQRIAIDLFKHQGTITVNEEGTQATTVTTVGFMPLSTQVRFTVDRPFLFLIYEHRTSCLLFMGRVANPSRSHHHHHH
modifications: C-terminal His6 tag
B1 was tested, and the “reduction of rate of thrombin inhibition by hirugen” value (α-thrombin; hirugen 20 μM, absence of glycosaminoglycan) was > 50%, the “rate constant of inhibition (k2) in the absence of peptide” value (α-thrombin; no hirugen, no control peptide, FIG. 5) was 310 M⁻¹ s⁻¹ and the “increase of thrombin inhibition rate compared to wt-rHCII” value (“increase of thrombin inhibition rate” for short) (thrombin; 50 μg/mL dermatan sulfate, each of the plasma conditions) was 1.2-1.3 fold. The “increase of thrombin inhibition rate” value (thrombin; 50:50 mixture of REF/DEF, 1 μg/mL heparin) was 1.5 fold, the “increase of thrombin inhibition rate” value (thrombin; DEF plasma, 1 μg/mL heparin) was 4.6 fold and the “Inhibition Rate k2 × 10^8 (M^-1 min^-1), thrombin in plasma” value (thrombin; Dermatan Sulfate (50 μg/mL), 50:50 Mixture (REF/DEF) plasma 1:100) was 7.0 × 10^8 (M^-1 min^-1). The “Inhibition Rate k2 × 10^8 (M^-1 min^-1), thrombin in plasma” value (thrombin; Dermatan Sulfate (50 μg/mL), ATIII Deficient (DEF) plasma 1:100) was 7.5 × 10^8 (M^-1 min^-1), the “Inhibition Rate k2 × 10^8 (M^-1 min^-1), thrombin in plasma” value (thrombin; Dermatan Sulfate (50 μg/mL), Normal Reference (REF) plasma 1:100) was 7.2 × 10^8 (M^-1 min^-1) and the “Inhibition Rate k2 × 10^8 (M^-1 min^-1), thrombin in plasma” value (thrombin; Heparin (1 μg/mL), 50:50 Mixture (REF/DEF) plasma 1:100) was 2.8 ± .18 × 10^8 (M^-1 min^-1). For the same molecule, the “Inhibition Rate k2 × 10^8 (M^-1 min^-1), thrombin in plasma” value (thrombin; Heparin (1 μg/mL), ATIII Deficient (DEF) plasma 1:100) was 1.2 ± .10 × 10^8 (M^-1 min^-1), the “Inhibition Rate k2 × 10^8 (M^-1 min^-1), thrombin in plasma” value (thrombin; Heparin (1 μg/mL), Normal Reference (REF) plasma 1:100) was 3.3 ± .37 × 10^8 (M^-1 min^-1) and the “increase of thrombin inhibition rate” value (thrombin; REF plasma, 1 μg/mL heparin) was 1.5 fold.
